Consider one molecule from patent US20190367620A1 (Merck KGaA, published 2019).

Where a chain is given by its changes, count along the chain named.

Holding throughout (test): SPR as in Example 1.8
Assay [1] has as its target T1, FGFR1 D2 point mutant K52A (human, UniProt P11362 22-254).
T1 chain: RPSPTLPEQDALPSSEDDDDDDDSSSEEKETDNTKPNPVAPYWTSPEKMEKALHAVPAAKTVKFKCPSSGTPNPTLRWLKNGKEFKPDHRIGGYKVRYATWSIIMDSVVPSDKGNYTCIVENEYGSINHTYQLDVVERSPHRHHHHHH
Here is the method: (§1) Binding affinities of anti-FGFR1 antibodies to FGFR1 were measured by Surface Plasmon Resonance (SPR) using a GE Healthcare BIAcore 4000 instrument as follows. Goat anti-human Fc antibody (Jackson ImmunoResearch Laboratories #109-005-098) was first immobilized on BIAcore carboxymethylated dextran CM5 chip using direct coupling to free amino groups following the procedure described by the manufacturer. Antibodies were then captured on the CM5 biosensor chip to achieve approximately 200 response units (RU). Binding measurements were performed using the running HBS-EP+ buffer. A 2-fold dilution series of His-tagged FGFR1 proteins were injected at a flow rate of 30 μl/min at 25° C. Association rates (kₒₙ, per mol/s) and dissociation rates (koff, per s) were calculated using a simple 1:1 Langmuir binding model (Biacore 4000 Evaluation Software). The equilibrium dissociation constant (KD, mol) was calculated as the ratio of koff/kₒₙ.
(§2) To obtain a finer, residue-level mapping of the epitope and to complement the HD exchange data, molecular modelling and manual inspection of the crystal structure of FGFR1 [(Beenken et al. 2012); PDB record 3OJV] was used to select solvent exposed residues within and around the epitope identified by HD exchange. The selected residues were mutated either to alanine (large to small) or to glycine if the selected residue was alanine. In total 35 point mutants were designed, expressed and purified in HEK cells, and tested for binding to mAb #A08 using surface plasmon resonance as described in Example 1.8. The affinity of the antibody for wild-type and each mutant was determined and used to calculate the contribution of each epitope residue to the binding energy.

Assay [2] deals with T2, FGFR1 D2 point mutant S45A (human, UniProt P11362 22-254).
T2 chain: T1 chain with S45A, A52K
Here is the method: as §1, §2

Assay [3] addresses T3, FGFR1 D2 point mutant P87A (human, UniProt P11362 22-254).
T3 chain: T1 chain with A52K, P87A
The method, then: as §1, §2

The target in assay [4] is T4, FGFR1 D2 point mutant K48A (human, UniProt P11362 22-254).
T4 chain: T1 chain with K48A, A52K
Here is the method:
as §1, §2

Assay [5] has as its target T5, FGFR1 D2 point mutant K86A (human, UniProt P11362 22-254).
T5 chain: T1 chain with A52K, K86A
The method, then: as §1, §2

Assay [6] deals with T6, FGFR1 D2 point mutant S107A (human, UniProt P11362 22-254).
T6 chain: T1 chain with A52K, S107A
Here is the method:
as §1, §2

For assay [7], the target named is T7, FGFR1 D2 point mutant K65A (human, UniProt P11362 22-254).
T7 chain: T1 chain with A52K, K65A
The method, then:
as §1, §2

Assay [8] deals with T8, FGFR1 D2 point mutant A55G (human, UniProt P11362 22-254).
T8 chain: T1 chain with A52K, A55G
Here is the method:
as §1, §2

For assay [9], the target named is T9, FGFR1 D2 point mutant D106A (human, UniProt P11362 22-254).
T9 chain: T1 chain with A52K, D106A
The method, then:
as §1, §2

Assay [10] has as its target T10, FGFR1 D2 point mutant H89A (human, UniProt P11362 22-254).
T10 chain: T1 chain with A52K, H89A
Here is the method:
as §1, §2

The target of assay [11] is T11, FGFR1 D2 point mutant D88A (human, UniProt P11362 22-254).
T11 chain: T1 chain with A52K, D88A
The method, then: as §1, §2

B1: mAb #A08 (antibody, V domains shown)
VH: EVQLQESGPGLVKPSGTLSLTCAVSGGSISSNNWWSWVRQPPGKGLEWIGEIYHSGSTSYNPSLKSRVTISVDKSKNQFSLKLNSVTAADTAVYYCARGTDWFDPWGQGTLVTVSS
VL: QAVLTQPPSVSVAPGQTARITCGGNNIGSESVHWYQQKPGQAPVLVVYDDSDRPSGIPERFSGSNSGNTATLTISRVEAGDEADYYCQVWDSTSDHRVFGGGTKLTVL
notes: Only variable domains are tied to the name mAb #A08 (hit); also called #A08 hit; mAb #08
For orientation: Kd means the concentration at which binding is half-saturated. As to B1, the Kd in assay [1] is 0.23 nM; in assay [2] it was 0.21 nM; in assay [3], 0.22 nM; in [4], 0.09 nM; in assay [5], 0.18 nM; in assay [6], 0.24 nM. Moreover, the Kd was 0.18 nM in [7]; 0.22 nM in assay [8]; 4.93 nM in assay [9]; 0.19 nM in assay [10]; 0.16 nM in assay [11].
